Reference: article PMC3003642, “DPI-ELISA: a fast and versatile method to specify the binding of plant transcription factors to DNA in vitro”

Legend:
[1] = target: T1, AtbZIP63 (Arabidopsis thaliana, UniProt B9DGI8 1-314); test: EMSA; DPI-ELISA: 2 pmol ds-bio DNA per well, crude E. coli extract in protein extraction buffer (HEPES, 100 mM salt per Additional file 1), 1 h, PBS-T washes pH 7.5; settings: protein: recombinant; tags: C-terminal V5:His; chain copies: 2; label: 5' biotin (DPI-ELISA); 33P (EMSA)
T1 sequence: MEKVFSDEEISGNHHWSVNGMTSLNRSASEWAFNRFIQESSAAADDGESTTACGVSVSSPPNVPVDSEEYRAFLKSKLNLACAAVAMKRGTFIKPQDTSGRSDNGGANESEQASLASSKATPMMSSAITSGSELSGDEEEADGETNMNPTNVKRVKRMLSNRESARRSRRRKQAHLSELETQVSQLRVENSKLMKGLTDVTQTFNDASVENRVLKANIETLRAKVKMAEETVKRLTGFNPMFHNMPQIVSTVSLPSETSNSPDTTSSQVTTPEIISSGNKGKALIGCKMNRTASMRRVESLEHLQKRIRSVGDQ

[2] = target: T2, AtBPC2 (Arabidopsis thaliana, UniProt Q9LDE2 1-279); test: competition DPI-ELISA; 100-1000 pmol competitor vs 2 pmol GABio; DPI-ELISA: 2 pmol ds-bio DNA per well, crude E. coli extract in protein extraction buffer (HEPES, 100 mM salt per Additional file 1), 1 h, PBS-T washes pH 7.5; settings: protein: recombinant; tags: N-terminal His (pET32b-GW)
T2 sequence: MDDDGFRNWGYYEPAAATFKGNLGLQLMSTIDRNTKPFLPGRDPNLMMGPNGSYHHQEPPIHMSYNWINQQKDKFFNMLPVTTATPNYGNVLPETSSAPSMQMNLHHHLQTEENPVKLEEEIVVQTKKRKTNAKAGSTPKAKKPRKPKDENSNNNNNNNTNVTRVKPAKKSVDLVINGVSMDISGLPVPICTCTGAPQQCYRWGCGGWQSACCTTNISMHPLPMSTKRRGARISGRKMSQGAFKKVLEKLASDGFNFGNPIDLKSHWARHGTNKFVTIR

[3] = target: T2, AtBPC2; test: DPI-ELISA; DPI-ELISA: 2 pmol ds-bio DNA per well, crude E. coli extract in protein extraction buffer (HEPES, 100 mM salt per Additional file 1), 1 h, PBS-T washes pH 7.5; settings: protein: recombinant; tags: N-terminal His (pET32b-GW); label: 5' biotin
[4] = target: T2, AtBPC2; test: competition DPI-ELISA; 1000 pmol DNA reduced binding irrespective of sequence; DPI-ELISA: 2 pmol ds-bio DNA per well, crude E. coli extract in protein extraction buffer (HEPES, 100 mM salt per Additional file 1), 1 h, PBS-T washes pH 7.5; settings: protein: recombinant; tags: N-terminal His (pET32b-GW)
[5] = target: T3, AtWRKY33cDBD (Arabidopsis thaliana, UniProt Q8S8P5 346-449); test: DPI-ELISA; DPI-ELISA: 2 pmol ds-bio DNA per well, crude E. coli extract in protein extraction buffer (HEPES, 100 mM salt per Additional file 1), 1 h, PBS-T washes pH 7.5; settings: protein: recombinant; tags: C-terminal V5:His; label: 5' biotin (DPI-ELISA); 33P (EMSA)
T3 sequence (Q8S8P5 346-449): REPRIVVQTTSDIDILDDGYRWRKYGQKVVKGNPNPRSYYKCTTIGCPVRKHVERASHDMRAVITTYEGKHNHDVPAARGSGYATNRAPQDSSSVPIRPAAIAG

[6] = target: AtWRKY75DBD (Arabidopsis thaliana, UniProt Q9FYA2 58-145); test: DPI-ELISA; up to 100 ug crude extract (data not shown); DPI-ELISA: 2 pmol ds-bio DNA per well, crude E. coli extract in protein extraction buffer (HEPES, 100 mM salt per Additional file 1), 1 h, PBS-T washes pH 7.5; settings: protein: recombinant; tags: C-terminal V5:His; label: 5' biotin (DPI-ELISA); 33P (EMSA)
Sequence of AtWRKY75DBD (Q9FYA2 58-145): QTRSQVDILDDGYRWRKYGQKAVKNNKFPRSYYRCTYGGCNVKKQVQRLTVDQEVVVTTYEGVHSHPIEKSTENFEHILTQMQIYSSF

[7] = target: AtWRKY50DBD (Arabidopsis thaliana, UniProt Q8VWQ5 99-173); test: DPI-ELISA; not corrected for protein concentration in extract; DPI-ELISA: 2 pmol ds-bio DNA per well, crude E. coli extract in protein extraction buffer (HEPES, 100 mM salt per Additional file 1), 1 h, PBS-T washes pH 7.5; settings: protein: recombinant; tags: C-terminal V5:His; label: 5' biotin (DPI-ELISA); 33P (EMSA)
Sequence of AtWRKY50DBD (Q8VWQ5 99-173): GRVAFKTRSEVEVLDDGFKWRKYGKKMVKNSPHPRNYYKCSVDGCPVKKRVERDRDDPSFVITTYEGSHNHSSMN

[8] = target: T4, AtWRKY11DBD (Arabidopsis thaliana, UniProt Q9SV15 229-325); test: competition DPI-ELISA; up to 50 pmol competitor; DPI-ELISA: 2 pmol ds-bio DNA per well, crude E. coli extract in protein extraction buffer (HEPES, 100 mM salt per Additional file 1), 1 h, PBS-T washes pH 7.5; settings: protein: recombinant; tags: C-terminal V5:His
T4 sequence (Q9SV15 229-325): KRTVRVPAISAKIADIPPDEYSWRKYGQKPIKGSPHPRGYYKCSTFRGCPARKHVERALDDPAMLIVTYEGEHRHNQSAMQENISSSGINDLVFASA

[9] = target: T4, AtWRKY11DBD; test: EMSA; DPI-ELISA: 2 pmol ds-bio DNA per well, crude E. coli extract in protein extraction buffer (HEPES, 100 mM salt per Additional file 1), 1 h, PBS-T washes pH 7.5; settings: protein: recombinant; tags: C-terminal V5:His; label: 5' biotin (DPI-ELISA); 33P (EMSA)
[10] = target: T3, AtWRKY33cDBD; test: DPI-ELISA; also at higher protein amounts (data not shown); DPI-ELISA: 2 pmol ds-bio DNA per well, crude E. coli extract in protein extraction buffer (HEPES, 100 mM salt per Additional file 1), 1 h, PBS-T washes pH 7.5; settings: protein: recombinant; tags: C-terminal V5:His; label: 5' biotin (DPI-ELISA); 33P (EMSA)

B1: Cm-probe (dsDNA)
DNA 1: AATTCTCCCTTATCTGCAGTCAGCATCCGG
DNA 2: CCGGATGCTGACTGCAGATAAGGGAGAATT
B1: no binding [1].

B2: C-probe (C-box) (dsDNA)
DNA 1: AATTCTCCCTTATCTGACGTCAGCATCCGG
DNA 2: CCGGATGCTGACGTCAGATAAGGGAGAATT
B2: binds [1].

B3: GA-probe, non-biotinylated competitor (dsDNA)
DNA 1: TAAAGGAGAAAGAAAGAGAAAGAGAGTTTC
DNA 2: GAAACTCTCTTTCTCTTTCTTTCTCCTTTA
B3: binds [2].

B4: GAm-probe (GAmBio) (dsDNA)
DNA 1: TAATGCAGCAAGTAAGACTACGACTGTTTC
DNA 2: GAAACAGTCGTAGTCTTACTTGCTGCATTA
B4: no binding [3].

B5: GAm-probe, non-biotinylated competitor (dsDNA)
DNA 1: TAATGCAGCAAGTAAGACTACGACTGTTTC
DNA 2: GAAACAGTCGTAGTCTTACTTGCTGCATTA
B5: no binding [4].

B6: GA-probe (GABio) (dsDNA)
DNA 1: TAAAGGAGAAAGAAAGAGAAAGAGAGTTTC
DNA 2: GAAACTCTCTTTCTCTTTCTTTCTCCTTTA
B6: binds [3].

B7: W2-probe (W2Bio) (dsDNA)
DNA 1: AAATTATTCAGCCATCAAAAGTTGACCAATAAT
DNA 2: ATTATTGGTCAACTTTTGATGGCTGAATAATTT
B7 was tested, and the binding result [5] was “binds”, the binding result [6] was “no binding” and the binding signal [7] was > 2 fold absorbance vs AtWRKY33cDBD.

B8: W2m-probe, non-biotinylated competitor (dsDNA)
DNA 1: AAATTATTCAGCCATCAAAAGTTACCCAATAAT
DNA 2: ATTATTGGGTAACTTTTGATGGCTGAATAATTT
B8: no binding [8].

B9: W2m-probe (W2mBio) (dsDNA)
DNA 1: AAATTATTCAGCCATCAAAAGTTACCCAATAAT
DNA 2: ATTATTGGGTAACTTTTGATGGCTGAATAATTT
B9: no binding [9]; no binding [6]; no binding [10].
